Measurements reported in the RNAGym collection of RNA variant scans (doi:10.1073/pnas.2313332121).
Fewer inactive variants are shown than the library holds.

B1: TPR 5TU (parent)
chain: GGAUCUUCUCGAUCUAACAAAAAAGACAAAUCUGCCACAAAGCUUGAGAGCAUCUUCGGAUGCAGAGGCGGCAGCCUUCGGUGGCGCGAUAGCGCCAACGUUCUCAACUAUGACACGCAAAACGCGUGCUCCGUUGAAUGGAGUUUAUCAUG

Variants of: B1
Experiment: polymerase ribozyme fitness, log enrichment relative to wild type (log ratio); higher = more active; in vitro selection for triplet polymerase activity
In short: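 Fitness is a logarithmic measure of how a genotype enriched relative to the wild type, with replicate averages weighted by inverse variance. The logarithm uses base 2, and enrichment came from Illumina sequencing of input and output libraries. Those libraries were PCR-built, transcribed mutants of each subunit of a heterodimeric triplet polymerase ribozyme, passed through one triplicate in vitro selection round that included frozen incubation at −7 °C, gel excision of extended constructs and streptavidin-bead capture. Genotypes were kept only if they had ≥10 input reads and ≥1 read per output.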

Variant | polymerase ribozyme fitness (log ratio)
U53A G133U | -3.53
C51U U55C A106G U151G | ≤ -4.2
C54A C85U C108U | ≤ -4.2
A52C C75U G88C C96U C105G G136U | ≤ -4.2
A52U C57A C63U G94U A150G | ≤ -4.2
U53C U56A G58A C76A A120G U134C | -3.01
U53G U55G C75U C76U G83A U135A | ≤ -4.2
U53A U78C U134G | -2.35
C54A C85G G124U | -3.78
A52C U56A C75U A89U U90G C95G C123G C125A | ≤ -4.2
A52U C63U C85U C116G | -0.741
U53A A91G | -3.09
A52G C54U | 0.381
A52G G117U | 0.374
A52G G117A | -0.121
A52G U77G G88C | ≤ -4.2
U53A U55G A64U C75U A91C C116U U144A | ≤ -4.2
U53A A91C C96U | ≤ -4.2
C51U C75U C87U U104C A115G A121U A142C | -4.13
A52C A138G | -3.62
U53A G68U A73G U134G A138C | ≤ -4.2
A52G G83C C129A | -2.88
U53A A91G U144G | -2.54
U53C U77G G124C U135C | ≤ -4.2

Variant | polymerase ribozyme fitness (log ratio)
C54A A60G G81A A91U A106U A110G G141C | ≤ -4.2
U53A C79A | ≤ -4.2
A52G C105A | -0.578
A52G G58A A66U U77G G94A C99G A107G | ≤ -4.2
U53A C57G C75G G83C U102A A121U U144A U145C | ≤ -4.2
U53A G59C C87U C96A A113G C125U | ≤ -4.2
C51U C118U | -0.957
A52G C85A A89G | -3.57
C51U A98U | -0.337
A52C G83A | -2.46
A52C A119U G141C | -2.95
A52G C75U | -0.679
U53A G83C C105G | ≤ -4.2
C51U A110G | -3.47
C51U A89U G92C C129U | -2.18
U53A A60U U77C G80C A91G A142C | ≤ -4.2
A52G G58C | 0.885
U53A C96A C125U | -1.41
A52G A66C G67C G141C | ≤ -4.2
U53A G58C G59U A91G C108A G124U G126U | ≤ -4.2
U53A C96U C118A | -1.21
C51U C87A A91U U144G | ≤ -4.2
U53G U61A C85U G94U A97U G152A | ≤ -4.2
U53A G59U | 0.71

Variant | polymerase ribozyme fitness (log ratio)
U53A G59A | -0.147
A52G U55A | -0.0825
A52G U55C | -0.523
A52G G80U | -3.34
C54A G86U A97G | ≤ -4.2
A52G C72U | -0.83
C51U C96A A121C U134A | -3.19
C54A G83A C99U | -3.7
C51U G67C U135C | ≤ -4.2
A52G G59C C99U | -1.42
C54A A89G U90A C99G | ≤ -4.2
A52U U53A C96U A119C | -2.05
U53A G86U A142U | ≤ -4.2
C54A C87U C93G U134G U135A | ≤ -4.2
A52G G84U C118G G128A U144G U145A | ≤ -4.2
U53A U102G G133U U144G | ≤ -4.2
U53A A110G | -3.7
A52C A73U C85A C103A | ≤ -4.2
U53A G74A U145G | ≤ -4.2
A52C C57U G80C A98U | -2.02
A52C U53A C85U A107U A119C C125U | ≤ -4.2
C51U G59C | 0.723
U53A G65A | -1.33
A52U C54U U55A C57G A73G G83C | ≤ -4.2

Variant | polymerase ribozyme fitness (log ratio)
C51U C57A C63U G65C | ≤ -4.2
U53A A122G | -0.748
C54A G84C | -2.93
U53A C93U | -2.51
A52G C85A | -2.19
A52C U55A | -1.69
C51U G58C A73G G81A C116U | -0.931
U53A G67C C85U U109G A115U | ≤ -4.2
U53G G59C A147C | -0.875
C51U C69A C96U G141C | -3.18
A52U G140C | ≤ -4.2
U53A C57U | -1.2
U53A C57A | -0.577
C51U U104G | -1.04
A52G G58U G84U C96A C99U | -4.02
U53A C95A | -0.902
A52U G86C A91C U139C | ≤ -4.2
U53A C93A C95G | ≤ -4.2
U53C G94A A97G | -2.46
A52C U55A C131G | ≤ -4.2
A52U G84A G117C | -0.726
C51U G58U A91U C96U G100C A138C | ≤ -4.2
A52G G59C A60C C96G G126A A142U | ≤ -4.2
A52G C96G C131U | -0.425

Variant | polymerase ribozyme fitness (log ratio)
U53A C76U A142G | -2.87
U53A G58A C76U C103G A150U | ≤ -4.2
A52U G81U C96U C114A A142U | -3.93
A52G G74A C87U C131U A142G | -3.99
C54A G80C C114A U127G G143C | ≤ -4.2
A52U U82C G92U C116G A121U | -3.06
A52C C87U A91U C116U G128U | ≤ -4.2
U53A A64G C103G G124A | ≤ -4.2
A52C A66C C69A C87G G133U | ≤ -4.2
U53A A73G U78C G133A | ≤ -4.2
U53C A122G | -0.671
U53A A89C | -0.605
A52C A91C | ≤ -4.2
U53A G70C | ≤ -4.2
U53A G70A | -3.81
U53G G58C G92A C125G A150C | ≤ -4.2
C51U U127A A142G | -4.07
U53A G84A C87U A106G | -3.23
A52U C118U | -1.14
C54A G86A | -3.13
A52G G67A G126U | ≤ -4.2
U53A U55A A121U | -2.74
A52U C85U | -1.59
U53A G143U | -3.09

Variant | polymerase ribozyme fitness (log ratio)
A52C C93U | -2.33
A52U G84U | -2.48
A52U U148C | ≤ -4.2
A52C U102A | -1.68
A52G C87U C116U C149G | -3.76
U53C C87G U101A | ≤ -4.2
A52U U55G C76U | -4.08
A52G C63G | -0.179
A52G U55C C105G U109A | -1.97
U53A C54G C95A | -1.73
C54A C116U | -0.368
A52C U61A G88U C96U G136U | ≤ -4.2
A52U C57G G58A C95U C123U G126U A138U | ≤ -4.2
A52G G59A C75U | -0.737
U53A C85A | -4
U53A C85G | -3.15
C54A G83C | -3.55
U53G G83C | -3.03
C54A A89G | -2.13
U53G A91G | -3.94
A52G U56A A64C G92U | ≤ -4.2
U53C C57U A60G C69A A97U G141A U146C | -0.526
C51U C57G G58C C69A A98U C105G C116U A150U | ≤ -4.2
C51U A142C | -0.909

Variant | polymerase ribozyme fitness (log ratio)
C51U A60U | -0.791
C51U U53A C93A | -4.05
A52C C96U | -1.77
A52G G92A A113U | -3.81
A52C C103U | -0.611
A52C C87A G88U U135C | ≤ -4.2
U53A C95U U104G A115U C123U | -3.81
C51U U56G C75U U134C | -2.81
U53A G83U A115C G124A | -2.73
A52C U56C G84U | -4.01
U53G C95U U139G | -1.58
U53C U55C C105U | -1.88
U53A U144G | -2.22
A52G C57G C76U G92U U148A | -4.19
A52G G143C | -3.77
A52C G59U | -0.875
U53A A73U C85U G124U U134C U135C | ≤ -4.2
A52C A107C A122C A138G | ≤ -4.2
A52G C131A | -1.46
U53A C75G | ≤ -4.2
U53A G70C C149G | ≤ -4.2
U53A U104G | -1.97
A52G U53G U77G C131G | ≤ -4.2
